Test results from PMC9097366 (Cell reports, 2022).
Residue numbers refer to the chain shown, from its start.

B1: S. cerevisiae Atg23 FL (recombinant, purified) (natural protein, UniProt Q06671 1-453, looked up)
chain: MELNQVLEKKEQILQYLGTLVGLHEKALSDVNSASQVTSIRKDITICLNDLCRINDLLVSHDGLLKREIGSLLRDKQELLELNEREQLLWKERKSWHIKQETDAAPADYVIDKDAIITISSHHRTSLNKYIESVGAENTILSNTDDSDAMIEEVQNAESSADQMIRNYKLLQLSHKQAKSEIIRLETLLRDFKKDNKFIEEELKRQSGRIRSEMGNIDFHLSKIEESKHQLMKRIGFESPLTQEKSLSEKIFNLRLSSADEDYNERQTINMKNFVHMKDLIELKIEDLQEQLMRNKNESSTVLTQRELWLDCQKKVGDLESKLITKLRSSSNSKIPPNEMSEMINSTIQYLNNLLDSSDEKLTTTLISNERDVLSKACEELHSESTTAQDGSSALPSKPIDIHKSHKGSNASSNLKQPSTPSFLVASKSPPKIGISESVVNANKNDAISKKVE
B2: Atg23 M3 (recombinant, purified) (natural protein, S. cerevisiae, UniProt Q06671 1-453, looked up)
chain: B1 chain with K66E, R67E
B3: Atg23 M4 (recombinant, purified) (natural protein, S. cerevisiae, UniProt Q06671 1-453, looked up)
chain: B1 chain with K66E, R67E, K296E
B4: Atg23 M5 (recombinant, purified) (natural protein, S. cerevisiae, UniProt Q06671 1-453, looked up)
chain: B1 chain with K66E, R67E, R74E, R85E, K296E

Biological target: the molecule itself
Assay: AUC

Stoichiometry N, 2:
B1
B2
B3
B4
